Experimental data as given in article PMC6829862, “Gγ and Gα Identity Dictate a G-Protein Heterotrimer Plasma Membrane Targeting” (Cells, 2019).

Biological target: T1, mCherry–Gβ1γ2 dimer (UniProt P62873 1-340; P59768 1-71, 20-carbon geranylgeranyl lipid on the cysteine of the C-terminal CaaX motif (said of Gγ2 in general))
T1 construct: Gβ1 subunit; cDNA in pcDNA3.1+ from UMR cDNA Resource Center; FP cloned at the N-terminus; Gγ2 subunit; source: HEK 293, transiently co-transfected (mCherry–Gβ1 and Gγ2), in living cells; not shown: mCherry, N-terminal, kept
Assay: FRET or BRET; FLIM-FRET in living transiently transfected HEK 293 cells at 37 °C; donor Citrine in Gα, acceptor mCherry on Gβ1 with the appropriate Gγ; efficiency E = 1 − τda/τd from the short lifetime component τ1 (donor alone 2.7 ± 0.1 ns), analysed only at the plasma membrane; GppNHp added to the culture did not change the signal
Settings: partners not purified

B1: Citrine–Gαs (natural protein)
chain: MGCLGNSKTEDQRNEEKAQREANKKIEKQLQKDKQVYRATHRLLLLGAGESGKSTIVKQMRILHVNGFNGNSDGEKATKVQDIKNNLKEAIETIVAAMSNLVPPVELANPENQFRVDYILSVMNVPDFDFPPEFYEHAKALWEDEGVRACYERSNEYQLIDCAQYFLDKIDVIKQADYVPSDQDLLRCRVLTSGIFETKFQVDKVNFHMFDVGGQRDERRKWIQCFNDVTAIIFVVASSSYNMVIREDNQTNRLQEALNLFKSIWNNRWLRTISVILFLNKQDLLAEKVLAGKSKIEDYFPEFARYTTPEDATPEPGEDPRVTRAKYFIRDEFLRISTASGDGRHYCYPHFTCAVDTENIRRVFNDCRDIIQRMHLRQYELL
notes: Gαs subunit (stimulatory G-protein alpha subunit); cDNA in pcDNA3.1+ from UMR cDNA Resource Center; also called wild-type Gαs; loop-tagged Gαs; source: HEK 293, transiently transfected; in living cells (FLIM-FRET) and in cell lysate (pull-down); not shown: Citrine, internal (in place of the loop Glu71-Ser82), kept
**Q.** For B1, which FRET efficiency is on record?
**A.** 19.7%
